Drawing on article PMC12146755, this text covers Kd for 6 substances.

Test [1] addresses CD3ε (antigen of the surface plasmon resonance) (human) (UniProt P07766). In words: SPR; format and conditions not given in the main text (SI Appendix, Fig. S1 D-F).
Target sequence in this assay (P07766 23-207): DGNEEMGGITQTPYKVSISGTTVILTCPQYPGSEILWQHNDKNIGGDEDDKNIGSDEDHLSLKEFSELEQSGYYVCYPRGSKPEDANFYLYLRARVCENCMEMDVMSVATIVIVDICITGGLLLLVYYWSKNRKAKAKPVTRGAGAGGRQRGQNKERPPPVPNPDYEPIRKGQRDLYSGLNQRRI
Test [2] has as its target Her2 (antigen of the surface plasmon resonance) (human) (UniProt P04626). In words: SPR. The conditions noted are these: bispecific antibody.
Test [3] has as its target CD3ε (antigen of the surface plasmon resonance) (human) (UniProt P07766). In words: SPR. Particulars: bispecific antibody.
Target sequence in this assay (P07766 23-126): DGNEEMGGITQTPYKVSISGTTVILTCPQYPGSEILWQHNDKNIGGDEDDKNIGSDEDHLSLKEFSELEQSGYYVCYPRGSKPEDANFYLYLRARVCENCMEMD

A word on the Kd: it is the equilibrium constant for the complex coming apart.

With “Bispecific T cell engager Format A (anti-Her2 x anti-CD3ε, IgG1-based) (bispecific antibody)”, the equilibrium dissociation constant (Kd) in test [1] was < 10 nM.

With “Bispecific T cell engager Format A (anti-Her2 x anti-CD3ε, IgG1-based) (from UniProt P01857)”, the Kd is 0.156 nM in test [2] and 3.8 nM in test [3]. Regarding “Bispecific T cell engager Format B (anti-Her2 x anti-CD3ε, IgG1-based) (bispecific antibody)”, the Kd in test [1] was < 10 nM. For the substance “Bispecific T cell engager Format B (anti-Her2 x anti-CD3ε, IgG1-based) (from UniProt P01857)”, the results for the Kd in test [2] and in test [3] were 0.249 nM and 4.2 nM, respectively. For “Bispecific T cell engager Format C (anti-Her2 x anti-CD3ε, IgG1-based) (bispecific antibody)”, in test [1], the equilibrium dissociation constant (Kd) was < 10 nM.

Regarding “Bispecific T cell engager Format C (anti-Her2 x anti-CD3ε, IgG1-based) (from UniProt P01857)”, the Kd was 0.086 nM in test [2] and 5.4 nM in test [3].
